In patent publication US20100260765A1 (AstraZeneca / MedImmune, published 2010):

Key:
[1] = target: T1, human KDR (VEGFR2) on cells (human, UniProt P35968 20-1356); experiment: cell-based or functional assay
[2] = target: T1, human KDR (VEGFR2) on cells; experiment: cell-based or functional assay; remark: listed apart in the source
[3] = target: T1, human KDR (VEGFR2) on cells; experiment: cell-based or functional assay; remark: listed apart in the source
[4] = target: T1, human KDR (VEGFR2) on cells; experiment: FACS on HUVEC, hybridoma supernatant 1:50
Method: HUVECs were seeded at 15,000 cells/well and incubated with 100 μL of sample supernatant (at 1:50 dilution) for one hour at 4° C. The positive control was goat anti-KDR antibody (R&D Systems, Inc.), and negative controls included irrelevant hybridoma supernatants at the same dilution. The cells were then washed and incubated with Cy5-conjugated goat anti-human antibody at 5 μg/mL and 7-Amino-Actinomycin D (7AAD) at 5 μg/mL for 15 minutes at 4° C. Bound KDR was detected using FACS analysis.

[5] = target: T2, mouse KDR (Flk-1)/Fc (Cat. #443-KD/CF, R&D Systems) (mouse, UniProt P35918 20-762); experiment: ELISA, plate-coated Flk-1/Fc 500 ng/mL, hybridoma supernatant 1:5
T2 construct: Bought reagent; also called mouse VEGFR2; KDR mouse ortholog; Fc part of the bought chimera not given
Method: The cross-reactivity of antibodies in the hybridoma supernatant was tested against KDR mouse ortholog (mouse VEGFR2, or Flk-1) and human VEGFR1 (Flt-1). Cross-reactivity was measured using an ELISA based assay.
After washing and blocking the plates, the antibody-containing supernatants were added (at 1:5 dilution) into the coated wells and incubated for one hour at room temperature. The plates were then incubated with mouse anti-human IgG 2, 3 and 4 and subsequently with goat anti-mouse IgG Fc POD, to detect and measure bound antibodies.

[6] = target: T3, soluble KDR (VEGF Receptor 2 D1-7, Cat. #676490, Calbiochem) (human, UniProt P35968 20-764); experiment: ELISA, plate-coated soluble KDR 250 ng/mL, hybridoma supernatant 1:5
T3 construct: extracellular domain; Bought reagent; also called soluble human KDR; immobilized soluble KDR
Method: To screen by binding to immobilized soluble KDR, plates were coated with KDR (Calbiochem) at 250 ng/mL overnight at 4° C. After blocking and washing the coated plates, the candidate hybridoma supernatants (at 1:5 dilution) were transferred to the plates and incubated for one hour at room temperature. The plates were then washed and incubated with secondary antibody (at 1:4000 dilution) for one hour at room temperature.

b-KDRIg4-7-myc-his = target: T4, b-KDRIg4-7-myc-his (UniProt P35968 328-764, prefix 'b-' not explained; captured on neutravidin-coated plates (presumably biotinylated, site not stated)); experiment: ELISA, b-KDRIg4-7-myc-his 1 ug/mL on neutravidin, hybridoma supernatant 1:5
T4 construct: domain: Ig4-7; The text calls it 'a KDR antibody containing the Ig4-7 domain'; it is read as the KDR fragment; Purified on a nickel column; also called Ig4-7 domain of KDR; soluble KDR Ig4-7; not shown: myc-his tag of the pSecTag vector
Method: To screen by binding to the Ig4-7 domain of KDR, plates were first coated with neutravadin (Pierce) at 4 μg/mL and incubated overnight at 4° C. The plates were then blocked and subsequently incubated with b-KDRIg4-7-myc-his at 1 μg/mL for one hour at room temperature. Candidate hybridoma supernatants (at 1:5 dilution) were transferred to the plates and incubated for one hour at room temperature. The plates were then washed and incubated with goat anti-human IgG Fc POD (at 1:4000 dilution) for one hour at room temperature.

T1 sequence (P35968 20-1356): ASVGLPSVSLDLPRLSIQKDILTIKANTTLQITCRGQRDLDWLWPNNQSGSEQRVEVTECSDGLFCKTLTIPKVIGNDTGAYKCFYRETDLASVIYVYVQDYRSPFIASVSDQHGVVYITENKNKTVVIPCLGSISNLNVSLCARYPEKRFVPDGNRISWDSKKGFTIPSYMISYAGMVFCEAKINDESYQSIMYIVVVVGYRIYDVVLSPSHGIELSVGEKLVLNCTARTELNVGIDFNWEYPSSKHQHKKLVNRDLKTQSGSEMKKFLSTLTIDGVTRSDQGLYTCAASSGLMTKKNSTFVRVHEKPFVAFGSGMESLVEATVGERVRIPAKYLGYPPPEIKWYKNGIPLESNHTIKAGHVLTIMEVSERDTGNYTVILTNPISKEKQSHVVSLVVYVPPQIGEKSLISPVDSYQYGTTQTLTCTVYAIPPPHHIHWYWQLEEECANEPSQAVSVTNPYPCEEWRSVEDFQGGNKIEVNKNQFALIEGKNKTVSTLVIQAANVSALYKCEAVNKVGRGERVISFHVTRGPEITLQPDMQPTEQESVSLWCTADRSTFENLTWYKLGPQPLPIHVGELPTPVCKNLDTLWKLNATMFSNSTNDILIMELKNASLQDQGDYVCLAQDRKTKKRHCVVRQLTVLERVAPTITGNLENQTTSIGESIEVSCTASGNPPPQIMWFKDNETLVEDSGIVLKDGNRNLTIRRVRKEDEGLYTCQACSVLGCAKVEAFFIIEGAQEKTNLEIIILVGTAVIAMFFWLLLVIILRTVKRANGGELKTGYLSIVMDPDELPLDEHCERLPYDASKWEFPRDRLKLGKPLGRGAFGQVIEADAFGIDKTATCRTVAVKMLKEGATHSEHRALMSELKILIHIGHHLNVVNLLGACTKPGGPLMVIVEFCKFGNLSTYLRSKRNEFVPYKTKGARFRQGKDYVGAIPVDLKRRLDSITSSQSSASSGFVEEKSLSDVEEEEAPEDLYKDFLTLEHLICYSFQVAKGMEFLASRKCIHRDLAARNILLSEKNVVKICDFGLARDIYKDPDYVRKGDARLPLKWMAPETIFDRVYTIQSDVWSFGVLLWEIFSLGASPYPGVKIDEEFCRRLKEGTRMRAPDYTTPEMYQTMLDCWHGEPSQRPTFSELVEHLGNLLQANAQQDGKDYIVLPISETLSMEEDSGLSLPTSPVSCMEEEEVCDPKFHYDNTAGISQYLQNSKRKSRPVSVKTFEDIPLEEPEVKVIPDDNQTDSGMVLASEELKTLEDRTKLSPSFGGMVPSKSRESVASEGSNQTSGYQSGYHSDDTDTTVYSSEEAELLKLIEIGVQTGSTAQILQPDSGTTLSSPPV
T3 sequence (P35968 20-764): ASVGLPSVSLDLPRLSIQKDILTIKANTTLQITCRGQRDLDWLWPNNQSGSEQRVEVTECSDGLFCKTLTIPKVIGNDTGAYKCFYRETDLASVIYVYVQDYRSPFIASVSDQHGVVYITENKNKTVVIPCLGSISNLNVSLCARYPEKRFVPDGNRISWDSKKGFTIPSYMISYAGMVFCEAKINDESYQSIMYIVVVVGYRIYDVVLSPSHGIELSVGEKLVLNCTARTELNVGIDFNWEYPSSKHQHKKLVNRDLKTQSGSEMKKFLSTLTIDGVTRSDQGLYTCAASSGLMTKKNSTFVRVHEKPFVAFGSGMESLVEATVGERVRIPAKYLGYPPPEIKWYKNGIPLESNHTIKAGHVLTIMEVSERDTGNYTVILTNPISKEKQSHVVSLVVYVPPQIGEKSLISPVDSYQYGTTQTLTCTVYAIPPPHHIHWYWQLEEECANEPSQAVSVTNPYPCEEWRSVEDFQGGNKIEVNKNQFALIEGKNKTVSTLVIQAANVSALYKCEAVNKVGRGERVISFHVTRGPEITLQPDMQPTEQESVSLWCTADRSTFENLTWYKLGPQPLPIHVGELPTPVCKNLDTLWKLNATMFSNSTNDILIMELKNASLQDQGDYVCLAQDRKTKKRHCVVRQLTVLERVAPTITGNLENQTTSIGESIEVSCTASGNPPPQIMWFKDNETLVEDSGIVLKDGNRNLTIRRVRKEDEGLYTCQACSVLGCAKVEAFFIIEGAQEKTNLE
T2 sequence (P35918 20-762): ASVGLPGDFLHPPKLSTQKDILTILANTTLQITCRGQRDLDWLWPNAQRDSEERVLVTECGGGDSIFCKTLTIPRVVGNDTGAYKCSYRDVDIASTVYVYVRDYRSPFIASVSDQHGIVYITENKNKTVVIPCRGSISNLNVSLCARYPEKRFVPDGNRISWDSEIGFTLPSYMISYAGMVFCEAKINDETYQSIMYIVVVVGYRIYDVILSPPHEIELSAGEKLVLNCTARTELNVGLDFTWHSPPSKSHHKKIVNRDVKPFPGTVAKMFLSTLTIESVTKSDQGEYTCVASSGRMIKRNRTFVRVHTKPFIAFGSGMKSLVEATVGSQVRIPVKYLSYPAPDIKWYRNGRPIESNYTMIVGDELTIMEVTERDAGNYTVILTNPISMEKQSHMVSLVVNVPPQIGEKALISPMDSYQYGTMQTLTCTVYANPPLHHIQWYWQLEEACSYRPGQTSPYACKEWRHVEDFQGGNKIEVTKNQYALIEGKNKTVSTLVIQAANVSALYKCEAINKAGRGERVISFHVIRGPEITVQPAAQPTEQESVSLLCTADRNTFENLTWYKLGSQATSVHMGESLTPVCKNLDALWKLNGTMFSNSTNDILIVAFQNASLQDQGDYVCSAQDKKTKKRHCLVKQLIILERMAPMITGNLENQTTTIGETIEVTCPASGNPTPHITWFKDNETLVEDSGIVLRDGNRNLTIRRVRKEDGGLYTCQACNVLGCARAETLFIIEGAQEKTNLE
T4 sequence (P35968 328-764): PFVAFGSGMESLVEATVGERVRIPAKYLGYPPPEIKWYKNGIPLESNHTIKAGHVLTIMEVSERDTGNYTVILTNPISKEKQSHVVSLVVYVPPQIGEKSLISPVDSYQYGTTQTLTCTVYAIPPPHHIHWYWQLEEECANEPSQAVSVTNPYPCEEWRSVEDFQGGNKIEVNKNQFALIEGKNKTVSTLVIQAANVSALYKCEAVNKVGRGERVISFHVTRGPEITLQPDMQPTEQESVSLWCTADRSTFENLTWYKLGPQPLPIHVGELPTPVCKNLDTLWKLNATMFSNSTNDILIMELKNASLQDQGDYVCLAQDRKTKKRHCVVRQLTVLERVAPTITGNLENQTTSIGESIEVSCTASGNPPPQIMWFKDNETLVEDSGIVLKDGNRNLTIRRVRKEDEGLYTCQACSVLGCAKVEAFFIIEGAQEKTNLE

B1: anti-KDR monoclonal antibody 21H9 (antibody, V domains shown)
VH: QVPLVESGGGVVQPGRSLRLSCAASGFTFSSYGMHWVRQAPGKGLEWVAVIWYDGSNKYYADSVQGRFTISRDNSKNTLYLQMNSLRAEDTAVYYCARGVTMVRGLIIARYYYGLDVWGQGTTVTVSS
VL: DIVMTQTPLSSPVTFGQPASISCRSSQSLVHSDGNTYLSWLQQRPGQPPRLLIYKISNRFFGVPDRFSGSGAGTDFTLKISRVEAEDVGLYYCMQSTQFPLTFGGGTKVEIK
notes: Fully human mAb from XenoMouse (IgG2 or IgG4 strain); hybridoma supernatant
Question: With B1 as the binder, how does the “% Inhibition of VEGF165-mediated pTyr Activity, Average” value (“% Inhibition … Average” for short) [1] read?
Answer: Its value is 70%.

Question: What about the “% Inhibition of VEGF165-mediated pTyr Activity, n = 1” value (shortened to “% Inhibition … n = 1”) [1] of the same binder?
Answer: Its value is 80%.

Question: What about the “% Inhibition of VEGF165-mediated pTyr Activity, n = 2” value (from here on “% Inhibition … n = 2”) [1] of the same binder?
Answer: Its value is 70%.

Question: What about the “% Inhibition of VEGF165-mediated pTyr Activity, n = 3” value (“% Inhibition … n = 3” for short) [1] of the same binder?
Answer: Its value is 61%.

Question: And the “% Inhibition of VEGF-E-mediated pTyr Activity” value [2]?
Answer: Its value is 6%.

Question: And the “HUVEC survival (n = 1) 1:10 dilution of supernatant (RLU)” value (“HUVEC survival (n = 1) 1:10 dilution” for short) [3]?
Answer: Its value is 43800 RLU.

Question: What about the “HUVEC survival (n = 2) 1:20 dilution of supernatant (RLU)” value (“HUVEC survival (n = 2) 1:20 dilution” for short) [3] of the same binder?
Answer: The value was 10300 RLU.

Question: What about the “FACS Geometric Mean” value [4] of the same binder?
Answer: Its value is 29.

Question: What about the “OD (450 nm)” value [5] of the same binder?
Answer: The value was 0.139 OD450.

Question: What about the “KDR OD(450 nm)” value [6] of the same binder?
Answer: Its value is 1.65 OD450.

B2: anti-KDR monoclonal antibody 27A3 (antibody, V domains shown)
VH: QLQLQESGPGLVKPSETLSLTCTVSGGSISSRSDYWGWIRQPPGKGLEWIGTIYYSGDTYYNPSLKSRVTISVDTSKNQFSLKLSSVTAADTAVYYCARQQLVLYYFDYWGQGTLVTVSS
VL: EIVLTQSPGTLSLSPGERATLSCRASQSVSSSYLAWYQQKPGQAPRLLIYATSNRATGIPDRFSGSGSGTDFTLTISRLEPEDFAVYYCQQHGSSPPLTFGGGTKVEIK
notes: as for B1
Question: With B2 as the binder, how does the “% Inhibition … Average” value [1] read?
Answer: Its value is 62%.

Question: And the “% Inhibition … n = 1” value [1]?
Answer: The value was 60%.

Question: What about the “% Inhibition … n = 2” value [1] of the same binder?
Answer: The value was 68%.

Question: And the “% Inhibition … n = 3” value [1]?
Answer: The value was 59%.

Question: What about the “% Inhibition of VEGF-E-mediated pTyr Activity” value [2] of the same binder?
Answer: Its value is 60%.

Question: What about the “HUVEC survival (n = 1) 1:10 dilution” value [3] of the same binder?
Answer: The value was 17300 RLU.

Question: What about the “HUVEC survival (n = 2) 1:20 dilution” value [3] of the same binder?
Answer: Its value is 4560 RLU.

Question: What about the “FACS Geometric Mean” value [4] of the same binder?
Answer: Its value is 25.

Question: And the “KDR OD(450 nm)” value [6]?
Answer: The value was 3.75 OD450.

Question: And the “b-KDRIg4-7 OD(450 nm)” value (b-KDRIg4-7-myc-his)?
Answer: The value was 1.82 OD450.

B3: anti-KDR monoclonal antibody 30H10 (antibody, V domains shown)
VH: EVQLLESGGGLVQPGGSLRLSCAASGFTFSNYAMSWVRQAPGKGLEWVSAISGSGGITYYADSVKGRFTISRDNSKNTLFLQMNSLRAEDTAVYYCAKASGDNWGQGTLVSVSS
VL: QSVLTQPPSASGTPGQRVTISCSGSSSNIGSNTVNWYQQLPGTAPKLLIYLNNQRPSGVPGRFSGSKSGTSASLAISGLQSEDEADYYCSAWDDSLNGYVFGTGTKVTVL
notes: as for B1
Question: What does the source list for B3?
Answer: % Inhibition of VEGF165-mediated pTyr Activity, Average [1]: 76%; % Inhibition of VEGF165-mediated pTyr Activity, n = 1 [1]: 92%; % Inhibition of VEGF165-mediated pTyr Activity, n = 2 [1]: 77%; % Inhibition of VEGF165-mediated pTyr Activity, n = 3 [1]: 59%; % Inhibition of VEGF-E-mediated pTyr Activity [2]: 20%; HUVEC survival (n = 1) 1:10 dilution of supernatant (RLU) [3]: 39500 RLU; HUVEC survival (n = 2) 1:20 dilution of supernatant (RLU) [3]: 21100 RLU; FACS Geometric Mean [4]: 31; KDR OD(450 nm) [6]: 0.943 OD450; b-KDRIg4-7 OD(450 nm) (b-KDRIg4-7-myc-his): 0.047 OD450

B4: anti-KDR monoclonal antibody 32C11 (antibody, V domains shown)
VH: EVQLLESGGTLVQPGGSLRLSCAASGFTFSNYAMSWVRQAPGKGLEWVSAISGRAGSTYYADSVKGRFTISRDNSKNTLFLQMNSLRAEDTAVYYCAKASGDDWGQGTLVTVSS
VL: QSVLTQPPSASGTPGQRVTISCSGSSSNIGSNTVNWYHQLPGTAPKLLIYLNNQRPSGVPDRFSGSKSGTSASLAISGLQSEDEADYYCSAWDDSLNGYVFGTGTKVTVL
notes: as for B1
Question: B4 was tested. Which “% Inhibition … Average” value [1] did it give?
Answer: The value was 72%.

Question: And the “% Inhibition … n = 1” value [1]?
Answer: The value was 84%.

Question: And the “% Inhibition … n = 2” value [1]?
Answer: The value was 75%.

Question: And the “% Inhibition … n = 3” value [1]?
Answer: Its value is 57%.

Question: What about the “% Inhibition of VEGF-E-mediated pTyr Activity” value [2] of the same binder?
Answer: Its value is 17%.

Question: What about the “HUVEC survival (n = 1) 1:10 dilution” value [3] of the same binder?
Answer: Its value is 44800 RLU.

Question: And the “HUVEC survival (n = 2) 1:20 dilution” value [3]?
Answer: The value was 8570 RLU.

Question: What about the “FACS Geometric Mean” value [4] of the same binder?
Answer: Its value is 26.

Question: What about the “OD (450 nm)” value [5] of the same binder?
Answer: The value was 0.083 OD450.

Question: What about the “KDR OD(450 nm)” value [6] of the same binder?
Answer: Its value is 0.924 OD450.

B5: anti-KDR monoclonal antibody 30F6 (antibody, V domains shown)
VH: QVQLVESGGGVVQPGRSLRLSCAASGFTFSTYGMHWVRQAPGKGLEWVAVIWYDGSNKYYADSVKGRFTISRDNSKNTLYLQMNSLRAEDTAVYYCACSYWNDDYYYGMDVWGQGTTVTVSS
VL: DIQMTQSPSSLSASVGDRVIITCRASQNISSYLIWYQQKPGKAPNLLIHTTSSLQRGVPSRFSGSGSGTDFTLTISSLQPEDFATYYCQQSYSAPLTFGGGTKVEIK
notes: as for B1
Question: For B5, which “% Inhibition … Average” value [1] is on record?
Answer: Its value is 70%.

Question: What about the “% Inhibition … n = 1” value [1] of the same binder?
Answer: The value was 98%.

Question: What about the “% Inhibition … n = 2” value [1] of the same binder?
Answer: The value was 60%.

Question: And the “% Inhibition … n = 3” value [1]?
Answer: Its value is 52%.

Question: And the “% Inhibition of VEGF-E-mediated pTyr Activity” value [2]?
Answer: Its value is 56%.

Question: And the “HUVEC survival (n = 1) 1:10 dilution” value [3]?
Answer: Its value is 14800 RLU.

Question: What about the “HUVEC survival (n = 2) 1:20 dilution” value [3] of the same binder?
Answer: The value was 1350 RLU.

Question: What about the “FACS Geometric Mean” value [4] of the same binder?
Answer: Its value is 21.

Question: What about the “OD (450 nm)” value [5] of the same binder?
Answer: Its value is 0.067 OD450.

Question: And the “KDR OD(450 nm)” value [6]?
Answer: The value was 0.454 OD450.
